Measurements: publication PMC11190147, “Structures of the Staphylococcus aureus ribosome inhibited by fusidic acid and fusidic acid cyclopentane” (Scientific Reports, 2024)

B1: Staphylococcus aureus ribosomal protein uL6 (natural protein, S. aureus NCTC 8325-4 (endogenous), UniProt Q2FW21 1-178, looked up)
chain: MSRVGKKIIDIPSDVTVTFDGNHVTVKGPKGELSRTLNERMTFKQEENTIEVVRPSDSKEDRTNHGTTRALLNNMVQGVSQGYVKVLELVGVGYRAQMQGKDLILNVGYSHPVEIKAEENITFSVEKNTVVKVEGISKEQVGALASNIRSVRPPEPYKGKGIRYQGEYVRRKEGKTGK
notes: Large-subunit ribosomal protein uL6 of S. aureus, encoded by rplF, as it stands in the native 70S ribosome; Present as a subunit of the 70S ribosome, not as an isolated protein; source: endogenous, in 70S ribosomes purified from S. aureus NCTC 8325-4 (sucrose cushions, zonal centrifugation)

Tests used:
[1] = target: Staphylococcus aureus 70S ribosome (S. aureus NCTC 8325-4 (endogenous)) (UniProt Q2FW21); experiment: cryo-EM structure; FA-CP complex: as the FA complex but with 5 uM E. coli tRNAfMet and 400 uM FA-CP instead of FA; CHI state 2.0 Å, POST state 2.4 Å
[2] = target: Staphylococcus aureus 70S ribosome (S. aureus NCTC 8325-4 (endogenous)) (UniProt Q2FW21); experiment: cryo-EM structure; FA complex: 0.5 uM S. aureus 70S, 2 uM mRNA Z4AUGGCA, 2 uM E. coli tRNAfMet, 5 uM S. aureus EF-G, 400 uM FA, 1 mM GTP in HEPES polymix buffer (20 mM HEPES pH 7.5, 5 mM BME), 10 min steps at 37 °C; 1 ul of 25 uM FusB with 400 uM FA mixed into the drop on the grid; CHI state 2.5 Å (modelled), POST state 3.1 Å (not modelled)
[3] = target: T1, Staphylococcus aureus elongation factor G (Staphylococcus aureus, UniProt P68790 1-693); experiment: as above; conditions: both partners purified
T1 construct: Ser-Leu that remains at the N-terminus after TEV cleavage of the 6xHis tag and linker; In the complexes EF-G carries GDP, magnesium and FA or FA-CP; also called EF-G; S. aureus EF-G; source: E. coli BL21 (DE3), purified (Ni Sepharose, TEV cleavage, reverse IMAC, Superdex-200 gel filtration); not shown: 6xHis, N-terminal, cleaved

| Molecule | percent of 70S particles that contain EF-G [1] [%] | percent of ribosomes bound to EF-G [2] [%] | binding result [3] |
| --- | --- | --- | --- |
| Staphylococcus aureus elongation factor G (from UniProt P68790 1-693) (natural protein) | 72 | 60 | – |
| B1 | – | – | binds |
